Results published in patent US11406665B2, “Therapeutic peptides that target TGF-beta interaction” (GENAGON THERAPEUTICS AB, priority 2017, dated 2022).

T1: GDF15 (Homo sapiens, UniProt Q99988)
T1 construct: purchased Abcam
T1 sequence (Q99988 195-308): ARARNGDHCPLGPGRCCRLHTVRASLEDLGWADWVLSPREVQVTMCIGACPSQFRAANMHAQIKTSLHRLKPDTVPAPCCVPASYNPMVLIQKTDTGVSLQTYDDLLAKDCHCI

T2: TGFb2 (Homo sapiens, UniProt P61812)
T2 construct: purchased Abcam
T2 sequence (P61812 303-414 limits assumed): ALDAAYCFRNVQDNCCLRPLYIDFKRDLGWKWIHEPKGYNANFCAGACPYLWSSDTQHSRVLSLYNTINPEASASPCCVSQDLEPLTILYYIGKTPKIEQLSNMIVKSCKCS

T3: TGFb3 (Homo sapiens, UniProt P10600)
T3 construct: purchased Abcam
T3 sequence (P10600 301-412 limits assumed): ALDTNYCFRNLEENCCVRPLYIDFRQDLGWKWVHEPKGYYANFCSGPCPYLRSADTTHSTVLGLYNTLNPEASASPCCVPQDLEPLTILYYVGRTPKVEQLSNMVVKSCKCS


Legend:
GDF15 = target: T1, GDF15; assay: ELISA binding of ligand to immobilized CLPTM1 peptide fragments; details: biotinylated peptide immobilized at 1 μM; ligand 100 ng/ml; OD 450-620 measured
Method: (§1) Biotinylated synthetic peptide fragments from CLPTM1 (JPT peptides, Germany) were immobilized in a streptavidin 96 well plate (#15500 Pierce) at 1 μM in PBS over night at +4° C. Plate was then washed 4 times in 300 μl PBS with 0.05% tween-20 (wash buffer). The plate was then blocked with PBS 1% BSA and 0.05% tween-20 (blocking buffer) for 1.5 hours at room temperature, then washed 4 times in wash buffer. Ligands GDF15, TGFb1, TGFb2 and TGFb3 (Abcam) were added in blocking buffer at 100 ng/ml and incubated at room temperature for 2 hours. The plate was then washed 8 times in 300 μL wash buffer with 2× NaCl. An anti-GDF15 antibody was added at 1 μg/ml (R&D Systems, goat polyclonal) or a pan-specific anti-TGFb antibody (R&D Systems, mouse 1 D11), and the plate incubated in blocking buffer for 1 hour at room temperature followed by washing with 4×300 μl wash buffer. HAF017 anti-goat-HRP antibody (to detect the anti-GDF15 antibody) or Santa Cruz sc-2005 Goat anti-mouse-HRP (to detect the pan-specific anti-TGFb antibody) was added and the plate incubated for 1 hour in blocking buffer followed by a wash. TMB substrate was added and stopped after 15 minutes with H2SO4. OD 450-620 was measured in an ELISA reader.

TGFb1 = target: T4, TGFb1 (Homo sapiens, UniProt P01137); assay: as above; details: biotinylated peptide immobilized at 1 μM; ligand 100 ng/ml; OD 450-620 measured
T4 construct: purchased Abcam
Method: as §1

TGFb2 = target: T2, TGFb2; assay: as above; details: biotinylated peptide immobilized at 1 μM; ligand 100 ng/ml; OD 450-620 measured
Method: as §1

TGFb3 = target: T3, TGFb3; assay: as above; details: biotinylated peptide immobilized at 1 μM; ligand 100 ng/ml; OD 450-620 measured
Method: as §1

TGF-β proteins = assay: ELISA of Example 1, binding; details: result in words
Method: as §1

M2 polarized macrophages = assay: isPLA of TBK1 after ligand stimulation; format: cell-based, human; details: 10 ng/ml o/n, vs untreated control
Method: Human primary M2 polarized macrophages was derived from PBMC obtained from healthy volunteer blood donors. CD14+ cells were isolated using an EasySep CD14 Positive Selection Kit, maintained in RPMI-1640 medium supplemented with 10% FBS, L-Glutamine and Pen-strep. Cells were cultivated for 6 days in the presence of 50 ng/ml recombinant macrophage colony-stimulating factor (M-CSF, R&D Systems) in order to polarize the cells towards an M2 subtype.
For in situ proximity ligation assay (isPLA) experiments the cells were re-plated into 8-well slides (Lab-Tek™ II Chamber Slides, Thermo Fisher).
Cells were stimulated with either TGFB1, TGFB2, TGFB3 at 10 ng/ml. For isPLA, new medium was added, with individual ligands added to separate wells, and the cells incubated o/n prior to fixation in 3% formaldehyde solution for 20 minutes on ice the following day. Fixed cells were washed extensively in PBS and lysed in PBS with 1% Triton at room temperature for 20 minutes. The cells were blocked with Duolink blocking solution (Sigma) and primary antibodies at 1 μg/ml were added o/n. […] The slides were analysed using a Zeiss inverted epiflouroscence microscope set at 20× magnification. DAPI, FITC and CY3.5 channels were recorded. […]

PBMC = assay: Proseek secreted proteins, PBMC culture; format: cell-based
Method: Secreted proteins from cell cultures where quantified using multiplexed proximity extension assay, Proseek (Assarsson E et al PlosOne 2014) by Olink Proteomics AB (Uppsala Sweden). Data is presented as Normalized Protein Expression (NPX log 2-scale). The Oncology I v2 92-plex panel was run.
A cell suspension of heparinized peripheral blood was diluted 1:1 and placed on a Ficoll Paque Plus. Cells were centrifuged at 400×g for 30 minutes and the PBMC layer was transferred to a 50 ml tube of PBS and centrifuged for 7 min at 250×g.

MCF7 cells = assay: Proseek secreted proteins, MCF7 culture; format: cell-based, human; details: FIG. 6A: exosomes from MCF7 cells, GDF15 1.5 μg/ml 1 hr
Method: Secreted proteins from cell cultures where quantified using multiplexed proximity extension assay, Proseek (Assarsson E et al PlosOne 2014) by Olink Proteomics AB (Uppsala Sweden). Data is presented as Normalized Protein Expression (NPX log 2-scale). The Oncology I v2 92-plex panel was run. MCF7 cells were cultured in serum-free conditions (No FBS added to DMEM) overnight prior to ligand stimulation, and media was replaced 3 times before stimulation to avoid exosomes from FBS. Cells were either treated with control (PBS) or biologically active GDF15 (Abcam) at 1.5 μg/ml for 1 hr at 37° C. For analyses of exosomes in FIG. 6A, conditioned medium was pre-cleared by centrifugation at 14,000×g for 10 min at 4° C., followed by filtration with a […] filter to avoid contaminants from cell debris, followed by ultracentrifugation at 100,000×g for 2 hrs. Pelleted exosome fraction was lysed with 1% Triton X-100 at 4° C., samples diluted in order to have 0.3% Triton concentration and analysed by Proseek multiplex panel as described above.

T4 sequence (P01137 279-390 limits assumed): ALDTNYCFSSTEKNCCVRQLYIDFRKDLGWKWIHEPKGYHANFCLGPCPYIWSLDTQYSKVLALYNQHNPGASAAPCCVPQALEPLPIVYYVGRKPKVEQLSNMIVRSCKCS

Molecule | ELISA OD450 GDF15 (GDF15) | ELISA OD450 TGFb1 (TGFb1) | ELISA OD450 TGFb2 (TGFb2) | ELISA OD450 TGFb3 (TGFb3) | binding to TGF-β proteins (TGF-β proteins) | TBK1 level (M2 polarized macrophages) | HB-EGF secretion (PBMC) | IFNγ expression (PBMC) | Midkine (MK) expression (MCF7 cells)
PLDQYVKFDAVSGDYYPIIYFNDYWNLQKDYYPINESLA (listed as Homo sapiens) [SEQ ID NO: 39] | 0.779 | 2.102 | 1.630 | 0.300 | favourable binding |  |  |  | 
SGDYYPIIYFNDYWNLQKDYYPINESLA (listed as Homo sapiens) [SEQ ID NO: 40] | 0.021 | 0.177 | 0.009 | 0.007 | favourable binding |  |  |  | 
SGDYYPIIYFNDYWNLQKDYYPINESLASLPLRVSFCPLS (listed as Homo sapiens) [SEQ ID NO: 32] | 0.022 | 0.010 | 0.007 | 0.014 | favourable binding |  |  |  | 
LDQYVKFDAVSGDYYPIIYFG (listed as Homo sapiens) [SEQ ID NO: 21] | 0.034 | 0.022 | 0.002 | 0.020 | binding |  |  |  | 
DTLMNLHVYISEHEHFTDFNATSALFWEQHDLVYGDWTSG (listed as Homo sapiens) [SEQ ID NO: 36] | 0.023 | 0.010 | 0.006 | 0.019 | binds |  |  |  | 
38 (VSGDYYPIIYFNDYWNLQKDYYPINESLASLPLRVSFC; listed as Homo sapiens) [compound 38] |  |  |  | 0.091 |  |  |  |  | 
TGFb1: TGF-β isoform 1, ligand for CLPTM1 |  |  |  |  |  | reduced |  |  | 
VSGDYYPIIYFNDYWNLQKDYYPINESLASLPLRVSFC (listed as Homo sapiens) [SEQ ID NO: 38] | 0.061 | 0.032 | 0.014 | 0.029 | favourable binding |  |  |  | 
YPINESLASLPLRVSFCPLSG (listed as Homo sapiens) [SEQ ID NO: 27] | 0.098 | 0.011 | 0.005 | 0.068 | binding |  |  |  | 
ARSAVVAAGGGSSGQVTSNGSIGRDPPAETQPQNPPAQPA (listed as Homo sapiens) [SEQ ID NO: 34] | 0.220 | 0.043 | 0.025 | 0.018 |  |  |  |  | 
36 (DTLMNLHVYISEHEHFTDFNATSALFWEQHDLVYGDWTSG; listed as Homo sapiens) [compound 36] |  |  |  | 0.095 |  |  |  |  | 
KALYRRLATVHMSRMINKYKG (listed as Homo sapiens) [SEQ ID NO: 17] | 0.042 | 0.026 | 0.013 | 0.0060 | binding |  |  |  | 
TKSGFHPDPRQKALYRRLATVHMSRMINKYKRRRFQKTKN (listed as Homo sapiens) [SEQ ID NO: 37] | 0.055 | 0.015 | 0.009 | 0.041 | binding has also been observed |  |  |  | 
NAWQVIKGVLFRIFIIWAISSWFRRGPAPQDQAGPGGA (listed as Homo sapiens) [SEQ ID NO: 35] | 0.507 | 1.536 | 0.164 | 0.151 |  |  |  |  | 
LWRWQLYAAQSTKSPWNFLGDELYEQSDEEQDSVKVALLETNP (listed as Homo sapiens) [SEQ ID NO: 33] | 0.033 | 0.013 | 0.008 | 0.011 |  |  |  |  | 
GDYYPIIYFNDYWNLQKDYYG (listed as Homo sapiens) [SEQ ID NO: 28] | 0.140 | 0.152 | 0.019 | 0.065 | binding |  |  |  | 
GDF15: Growth and Differentiation Factor 15, TGF-β superfamily ligand of CLPTM1 (protein) ARNGDHCPLGPGRCCRLHTVRASLEDLGWADWVLSPREVQVTMCIGACPSQFRAANMHAQIKTSLHRLKPDTVPAPCCVPASYNPMVLIQKTDTGVSLQTYDDLLAKDCHCI |  |  |  |  |  |  | increased | reduced | increased
